Data: PMC5715260
Blank lines part the entries; values can stand above or below the substance they belong to.

What was measured:
Assay in all cases: high performance liquid chromatography; mass of the native TTR compared with the subunit mass; data not shown
[1] = biological target: pigC/crocTTR (Crocodylus porosus TTR with the C-terminal sequence changed to that of S. scrofa TTR) (Crocodylus porosus | Sus scrofa) (UniProt O55245)
[2] = biological target: xenoN/pigC/huTTR (human TTR with the N-terminal and C-terminal sequences changed to those of Xenopus laevis and S. scrofa, respectively) (Xenopus laevis | human | Sus scrofa) (UniProt B7ZS96)
[3] = biological target: pigC/huTTR (human TTR with the C-terminal sequence changed to that of Sus scrofa TTR) (human | Sus scrofa)

pigC/huTTR (human TTR with the C-terminal sequence changed to that of Sus scrofa TTR), sequence (P50390 whole entry): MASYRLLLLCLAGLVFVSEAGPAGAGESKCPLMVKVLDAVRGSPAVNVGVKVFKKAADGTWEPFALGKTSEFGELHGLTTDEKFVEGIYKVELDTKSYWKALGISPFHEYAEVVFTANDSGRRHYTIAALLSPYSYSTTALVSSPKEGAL
xenoN/pigC/huTTR (human TTR with the N-terminal and C-terminal sequences changed to those of Xenopus laevis and S. scrofa, respectively), sequence (P50390 whole entry, looked up): as the sequence (P50390 whole entry) above
xenoN/pigC/huTTR (human TTR with the N-terminal and C-terminal sequences changed to those of Xenopus laevis and S. scrofa, respectively), sequence (B7ZS96 whole entry, looked up): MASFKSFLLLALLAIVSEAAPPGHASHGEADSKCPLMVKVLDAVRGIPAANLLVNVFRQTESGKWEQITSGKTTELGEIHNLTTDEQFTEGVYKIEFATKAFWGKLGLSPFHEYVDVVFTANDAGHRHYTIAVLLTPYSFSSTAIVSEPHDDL

stoichiometry N [1]: 4
Substance: pigC/crocTTR (Crocodylus porosus TTR with the C-terminal sequence changed to that of S. scrofa TTR) (from UniProt O55245 21-114; P50390 135-150)

stoichiometry N [2]: 4
Substance: xenoN/pigC/huTTR (human TTR with the N-terminal and C-terminal sequences changed to those of Xenopus laevis and S. scrofa, respectively) (from UniProt B7ZS96 1-9; P50390 141-150)

stoichiometry N [3]: 4
Substance: pigC/huTTR (human TTR with the C-terminal sequence changed to that of Sus scrofa TTR) (from UniProt P50390 141-150)
